The source of these data is US20230220073A1 (UCL BUSINESS, published 2023).

One assay concerns the target T1, CLL2 ROR1high (human, UniProt Q01973).
T1 construct: on the cell surface; also called ROR1 on primary CLL cells with high ROR1
As to the kind of experiment: flow cytometry, cells stained at 4 C, ahFc-DyLight647. As to the method: FIG. 9A-FIG. 9C: Internalisation of ROR1 MAbs on SKW 6.4 GFP and CLL cells by flow cytometry. Cells were stained at 4° C. and either left on ice or incubated at 37° C. for 15 min, 1 h and 2 h. Cells were then analysed using an anti-human IgG as secondary antibody. FIG. 9A-FIG. 9B: Histograms and FIG. 9C: Trends over time showing the MFI reduction over time are presented. The % of MFI reduction was calculated as described in the Materials and Methods chapter. Phenylarsine oxide (PAO), an endocytosis inhibitor, acted as negative control (PAO-120).
To distinguish between dissociation and internalisation, SKW 6.4 cells were incubated on ice in the presence of our selected antibodies for 30 min. Cells were then washed with ice-cold PBS and either left on ice or incubated at 37° C. for 15 min, 1 h or 2 h. For the 2 h time point, a duplicate sample was incubated with PAO (10 μM). Immediately after incubation, all samples were washed with ice-cold PBS and stained with an anti-human Fc-Dylight 647 for 30 min. Cells were analysed by flow cytometry and MFI reduction was calculated.
Samples were processed as mentioned above and analysed by flow cytometry. […] This was even clearer on CLL cells, where virtually no internalisation of clone V was detected.
On the technique in general: Flow cytometry measures light scatter and fluorescence of single cells or particles in a stream.

In the next assay the target is T2, SKW 6.4 GFP (human, UniProt Q01973).
T2 construct: on the cell surface; also called ROR1 endogenously expressed on SKW 6.4 cells
As to the kind of experiment: flow cytometry, SKW 6.4 GFP cells stained at 4 C, anti-human Fc-Dylight 647. The method, then: FIG. 8A-FIG. 8C: Internalisation of ROR1 antibodies on SKW 6.4 GFP cells by flow cytometry. SKW 6.4 GFP cells were stained at 4° C. and either kept on ice (blue line) or incubated at 37° C. (yellow line) for 1 h. […] Clones A, F and Mu (purple circle) were selected for further investigation. Clones R12 and 4a5 (in black) served as negative and positive control, respectively. Anti-human Fc-Dylight 647 was used as secondary antibody and as staining control (red line). MFI=Median Fluorescence Intensity.
After 30 min, cells were washed with ice-cold PBS, and either left on ice or incubated at 37° C. for 1 h. Subsequent staining with an anti-human Fc-Dylight 647 was used to detect any primary antibody that had remained on the cell surface. Previously reported clones R12 and 4a5 were also included in this assay as negative and positive controls, respectively (FIG. 8).

A further assay addresses T3, Fz+Kg (human, UniProt Q01973).
T3 construct: also called ROR1 Frizzled+Kringle domains, on transduced SUP-T1 cells
Briefly: flow cytometry, transduced SUP-T1 cells, anti-human Fc-Dylight647. The method, then: (§1) FIG. 1A-FIG. 1C: Identification of ROR1 binding domain: FIG. 1A: SUP-T1 cells were transduced with retroviral vectors containing either the full extracellular portion of ROR1 or only one or two extracellular domains. Non-transduced SUP-T1 (SUP-T1 NT) cells served as negative control. FIG. 1B: All 12 chimeric antibodies and FIG. 1C all 10 positive clones in scFv format were incubated with SUP-T1 NT and the new stable cell lines at 4° C. for 30 min. Cells were washed and stained with a secondary antibody (anti-human Fc-Dylight647), which was used as negative control. eROR1=extracellular ROR1, Ig-like=Immunoglobulin-like domain, Fz=Frizzled domain, Kg=Kringle domain.

A further assay has as its target T4, Kringle (Kg) (human, UniProt Q01973).
T4 construct: also called ROR1 Kringle domain alone, on transduced SUP-T1 cells
The assay is described as above. The method, then:
as §1

The target of assay [1] is T5, ROR1, full extracellular region, on transduced SUP-T1 cells (UniProt Q01973 30-406).
T5 construct: extracellular domain; also called eROR1; extracellular ROR1
The description is as above. The method, then:
as §1

Assay [2] addresses T6, ROR1 Ig-like domain alone, on transduced SUP-T1 cells (human, UniProt Q01973 30-147, limits assumed).
T6 construct: domain: Ig-like; also called immunoglobulin domain
The assay is described as above. The method, then:
as §1

In assay [3] the target is T7, ROR1 Frizzled domain alone, on transduced SUP-T1 cells (human, UniProt Q01973 165-299).
T7 construct: domain: Fz; also called Fz; ROR1-Fz domain
The description is as above. As to the method:
as §1

Assay [4] addresses T8, ROR1 Ig-like+Frizzled (Fz) domains, on transduced SUP-T1 cells (UniProt Q01973 30-299, limits assumed).
T8 construct: domain: Ig-like+Frizzled (Fz); also called Ig-Fz protein
Described as above. The method, then:
as §1

The target of assay [5] is T9, Histidine-tagged ROR1 protein (extracellular region) (UniProt Q01973 30-406).
T9 construct: extracellular domain; also called extracellular portion of ROR1 bearing a Histidine tag; not shown: Histidine tag
Briefly: SPR, Biacore X100; antibody captured by anti-human IgG1 on CM5 chip, His-tagged ROR1 extracellular portion injected at 1.5-100 nM. As to the method: FIG. 3: KD determination by surface plasmon resonance. Sensorgrams obtained using a Biacore X100 instrument are shown. Briefly, ROR1 antibodies were immobilized using a CM5 chip and seven different concentrations of the Histidine-tagged ROR1 protein (extracellular region) were injected. Concentrations ranged from […].
We undertook surface plasmon resonance evaluation using a Biacore X100 instrument. ROR1 chimeric antibodies were immobilised using an anti-human IgG1 antibody capture kit and a CM5 sensor chip. Seven different concentrations, ranging from 1.5-100 nM, of the extracellular portion of ROR1 bearing a Histidine tag were then injected.
For orientation: In SPR one partner is held on a chip, and binding of the other changes the refractive index at the surface.

The target of a further assay is T10, I(48)Q mutation (human, UniProt Q01973).
T10 construct: The text speaks of the Ig-like domain; the axis on sheet D00010 reads ROR1 Ig-like+Fz+Kg; also called ROR1 with I(48)Q in the Ig-like domain, on transduced SUP-T1 cells
Briefly: flow cytometry, I(48)Q-transduced cells (eGFP), DyLight647. As to the method:
FIG. 5A-FIG. 5H: Epitope mapping of ROR1 clone A MAb. FIG. 5A-FIG. 5B: Reactivity of clone A with ROR1-derived overlapping peptides was analyzed by ELISA. FIG. 5C-FIG. 5H: Amino acid substitution within the epitope binding region was performed in ROR1-transduced cell lines. Also, the previously described clones R12, 4a5 and D10 were also included for comparison. Red circles indicate essential amino acids for antibody binding. One out of three experiments is shown. Experiments were done in triplicates. Error bars represent SD.
(§2) Retroviral vectors were used for transducing SUP-T1 cells and transduction was tested by GFP expression using flow cytometry.

The target of assay [6] is T11, ROR1 Ig-like domain with NISSE at residues 47 to 51 replaced by FQDDL, on transduced SUP-T1 cells (human, UniProt Q01973 30-147, limits assumed).
T11 construct: domain: Ig-like; also called five amino acid substitution
As to the kind of experiment: flow cytometry on SUP-T1 cells transduced with mutated ROR1 Ig-like domain.

Assay [7] addresses T5, ROR1, full extracellular region, on …. As to the kind of experiment: flow cytometry, ROR1-transduced cells, single staining; Q1 = ahFc+ only; amFc+ahFc alone Q1 0.060. From the text: FIG. 7A-FIG. 7C: Competition assay by flow cytometry. Clone A (SA1) in murine IgG2a, k (mSA1) along with other ROR1 MAbs in human IgG1, k-including previously published 4a5, D10 and R12 clones—were used for staining ROR1-transduced cells. MAb staining was done as FIG. 7A-FIG. 7B: single agents or FIG. 7C: in combination with clone A (mSA1). Anti-human IgG (450) and anti-mouse IgG (DyLight649) were used as secondary antibodies. Combined staining using clones F and mSA1 acted as negative control for overlapping epitopes.
In FIG. 7C, three different columns are presented. Dot plots on the first column correspond to ROR1 binding assessed when SUP-T1 ROR1 cells were stained with clone A (SA1) (mIgG) in the first instance. After a washing step, cells were stained with a competitor antibody (hIgG), followed by another washing step. Both antibodies were then detected by a third staining step using the appropriate secondary antibodies. In the second column, a similar approach was taken when staining these cells, except that this time it was the antibody in hIgG1, k format the one used for the first staining step, followed by clone A (SA1) staining. On the third column, both antibodies were used at the same time.

Another assay concerns the target Q(261)H mutation (human, UniProt Q01973). As to the kind of experiment: flow cytometry, Q(261)H-transduced SUP-T1 cells (eGFP), DyLight647. The method, then:
FIG. 6A-FIG. 6D: Epitope mapping of ROR1 clone F MAb. FIG. 6A-FIG. 6B: Reactivity of clone F with ROR1-derived overlapping peptides was analyzed by ELISA. Since no linear epitope was identified, FIG. 6C-FIG. 6D: amino acid substitution of non-conserved regions within the Fz domain was performed in ROR1-Fz transduced cell lines. Circles indicate essential amino acids for antibody binding. One out of three experiments is shown. Experiments were done in triplicates. Error bars represent SD.
as §2

Assay [8] deals with T12, ROR1 Fz domain with Q(261)H and I(254)V, on transduced SUP-T1 cells (human, UniProt Q01973 165-299).
T12 construct: domain: Fz
Briefly: flow cytometry on SUP-T1 cells transduced with mutated ROR1 Fz domain.

T5 sequence (Q01973 30-406): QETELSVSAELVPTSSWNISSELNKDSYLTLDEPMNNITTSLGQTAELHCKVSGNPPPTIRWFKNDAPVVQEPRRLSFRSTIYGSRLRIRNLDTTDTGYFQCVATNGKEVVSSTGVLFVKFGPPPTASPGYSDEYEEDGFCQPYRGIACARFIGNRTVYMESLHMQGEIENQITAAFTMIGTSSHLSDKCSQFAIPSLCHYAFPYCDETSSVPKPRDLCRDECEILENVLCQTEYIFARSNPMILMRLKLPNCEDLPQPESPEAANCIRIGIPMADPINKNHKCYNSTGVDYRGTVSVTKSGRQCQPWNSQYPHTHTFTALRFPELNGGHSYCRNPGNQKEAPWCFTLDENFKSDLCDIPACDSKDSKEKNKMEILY
T9 sequence (Q01973 30-406): as above
T6 sequence (Q01973 30-147 limits assumed): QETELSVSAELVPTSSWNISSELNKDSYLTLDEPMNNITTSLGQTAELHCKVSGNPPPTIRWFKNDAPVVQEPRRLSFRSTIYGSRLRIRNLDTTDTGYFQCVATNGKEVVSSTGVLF
T4 sequence (Q01973 312-391 limits assumed): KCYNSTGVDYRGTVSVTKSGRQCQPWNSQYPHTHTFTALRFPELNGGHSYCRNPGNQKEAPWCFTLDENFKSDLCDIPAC
T3 sequence (Q01973 165-391 limits assumed): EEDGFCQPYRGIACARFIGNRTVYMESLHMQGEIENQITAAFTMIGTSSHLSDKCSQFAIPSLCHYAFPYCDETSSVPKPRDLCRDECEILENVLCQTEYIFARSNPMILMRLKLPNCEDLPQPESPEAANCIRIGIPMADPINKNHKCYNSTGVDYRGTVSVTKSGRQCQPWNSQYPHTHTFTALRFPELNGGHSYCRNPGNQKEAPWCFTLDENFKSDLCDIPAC
T7 sequence (Q01973 165-299): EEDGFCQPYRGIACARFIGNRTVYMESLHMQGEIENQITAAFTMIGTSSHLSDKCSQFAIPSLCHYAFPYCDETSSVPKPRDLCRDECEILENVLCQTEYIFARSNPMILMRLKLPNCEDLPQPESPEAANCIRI
T8 sequence (Q01973 30-299 limits assumed): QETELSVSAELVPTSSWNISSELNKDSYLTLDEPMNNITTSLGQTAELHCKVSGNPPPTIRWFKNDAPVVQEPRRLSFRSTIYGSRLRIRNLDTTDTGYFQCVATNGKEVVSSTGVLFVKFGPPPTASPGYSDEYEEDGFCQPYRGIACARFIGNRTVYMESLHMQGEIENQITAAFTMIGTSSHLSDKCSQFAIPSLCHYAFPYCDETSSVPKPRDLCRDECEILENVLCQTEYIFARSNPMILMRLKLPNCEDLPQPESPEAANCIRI
Q(261)H mutation, sequence (Q01973 165-299 Q261H limits assumed): as the sequence (Q01973 165-299) above, with Q97H counted along it
T11 sequence (Q01973 other isoform, or with tags, fused parts or gaps limits assumed): as the sequence (Q01973 30-147 limits assumed) above, with N18F, I19Q, S20D, S21D, E22L counted along it
T1 sequence (Q01973 30-937 limits assumed): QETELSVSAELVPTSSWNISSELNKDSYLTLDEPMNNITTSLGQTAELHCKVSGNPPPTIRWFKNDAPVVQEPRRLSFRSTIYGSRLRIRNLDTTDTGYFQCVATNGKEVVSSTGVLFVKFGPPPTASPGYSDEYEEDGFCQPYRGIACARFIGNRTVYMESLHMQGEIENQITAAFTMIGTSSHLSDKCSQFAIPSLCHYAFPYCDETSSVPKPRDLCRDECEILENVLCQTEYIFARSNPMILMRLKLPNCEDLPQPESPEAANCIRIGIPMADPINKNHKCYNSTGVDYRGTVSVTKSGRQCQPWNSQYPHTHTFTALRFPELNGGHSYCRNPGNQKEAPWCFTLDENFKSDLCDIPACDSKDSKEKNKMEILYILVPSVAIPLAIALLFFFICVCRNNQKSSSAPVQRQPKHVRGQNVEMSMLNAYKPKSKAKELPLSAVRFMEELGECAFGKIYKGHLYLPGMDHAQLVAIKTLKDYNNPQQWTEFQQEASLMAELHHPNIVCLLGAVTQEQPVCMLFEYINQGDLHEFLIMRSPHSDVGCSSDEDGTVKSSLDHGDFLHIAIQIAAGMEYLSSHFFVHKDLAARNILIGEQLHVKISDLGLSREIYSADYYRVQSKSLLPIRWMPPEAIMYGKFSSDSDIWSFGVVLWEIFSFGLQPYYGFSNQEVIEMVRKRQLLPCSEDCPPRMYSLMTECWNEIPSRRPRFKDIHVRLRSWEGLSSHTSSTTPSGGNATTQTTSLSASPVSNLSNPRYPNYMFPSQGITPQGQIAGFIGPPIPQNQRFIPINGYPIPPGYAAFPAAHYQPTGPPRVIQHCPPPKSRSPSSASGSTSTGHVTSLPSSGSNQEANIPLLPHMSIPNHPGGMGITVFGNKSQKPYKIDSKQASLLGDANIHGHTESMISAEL
T2 sequence (Q01973 30-937 limits assumed): as above
T10 sequence (Q01973 other isoform, or with tags, fused parts or gaps limits assumed): as the sequence (Q01973 30-406) above, with I19Q counted along it
T12 sequence (Q01973 165-299 I254V/Q261H): as the sequence (Q01973 165-299) above, with I90V, Q97H counted along it

B1: Clone V chimeric ROR1 antibody (antibody, V domains shown)
VH: EVQLVESGGGLVQPGRSLKLSCAASGFSFSNYGMHWIRQAPTKGLEWVASISPTGGNTYYRDSVKGRFTISRDNTKSTLYLQMDSLRSEDTATYYCATDDLYYSGPFAYWGQGTLVTVSS
VL: DIKMTQSPSFLSASVGDRVTINCKASQNITRFLNWYQQELGEAPTLLIYNTNNLQTGIPSRFSGSGSGTDFTLTISSLQPEDVATYFCLQHGSRPRTFGGGTKLELK
On to B1, for which the binding result with CLL2 ROR1high was “binds”; with SKW 6.4 GFP, “binds”; with Fz+Kg, “no binding”; with Kringle (Kg), “no binding”; in assay [1] it was “binds”; in assay [2], “no binding”. The binding result in [3] is recorded as “no binding”; in [4], “binds”.

B2: Clone A chimeric ROR1 antibody (antibody, V domains shown)
VH: QVQLQQSGTELVKPASSVRISCKASGYTLTTNYMHWIRQQPGNGLEWIGWIYPGNGNTKFNHKFDGRTTLTADKSSSIVYMQLSSLTSEDSAVYFCARSDFDYWGQGVMVTVSS
VL: DIQMTQSPSSMSASLGDRVTFTCQASQDIGNNLIWFQQKPGKSPRPLMYFATSLANGVPSRFSGSRSGSDYSLTISSLESEDLADYHCLQYREYPLTFGSGTKLDLK
notes: also called SA1
Usually Kd stands for the equilibrium constant for the complex coming apart. What is called koff is a measure of how fast the partners let go of each other. High values mean a short-lived complex, low ones a long-lived complex. For orientation: kon means the second-order rate constant of association. Low readings indicate slower complex formation, high ones faster complex formation. Regarding B2, the Kd in [5] worked out at 1.81 nM. Besides, the koff in assay [5] is 0.00104 s⁻¹. Further, in assay [5], the kon stood at 577000 M⁻¹ s⁻¹. Also, the binding result (with I(48)Q mutation; in assay [6]; with Fz+Kg; with Kringle (Kg); in assay [3]) was “no binding” throughout.

B3: Clone Mu chimeric ROR1 antibody (antibody, V domains shown)
VH: QVQLQQSGAELVKPGSSVRISCKASGYTITSYDMHWIKQQPGNGLEGIGWIHPGNGKIKYNQKFNGKATLTVDKSSSTAYMQLSSLTSEDSAVYFCARGTTRVFPWFAYWGQGTLVTVSS
VL: QFTLTQPKSVSGSLRSTITIPCERSSGDIGDNYVSWYQQHLGRPPINVIYADDQRPSEVSDRFSGSIDSSSNSASLTITNLQMDDEADYFCQSFDSNFDIPVFGGGTKLTVL
For B3, the binding result with Fz+Kg was “no binding”; with Kringle (Kg), “no binding”; in assay [1] it was “binds”; in assay [2], “binds”; in assay [3], “no binding”; in assay [4], “binds”.

B4: Clone F chimeric ROR1 antibody (antibody, V domains shown)
VH: EVQLVESGGGLVQPGRSLKLSCAASGFIFSEHNMAWVRQAPKKGLEWVATISDDGRNTYYRDSMRGRFTISRENARSTLYLQLDSLRSEDTATYYCASHRYNLFDSWGQGVMVTVSS
VL: DIQMTQSPSFLSASVGDRVTINCKASQNIDRYLNWYQQKLGEAPKRLLYNTNKLQTGIPSRFSGSGSATDFTLTISSLQPEDFATYFCLQYNSLPLTFGSGTKLEIK
In assay [5], B4 showed a Kd of 5.46 nM. In [5], the koff was found to be 0.000836 s⁻¹. This molecule showed a kon in assay [5] of 153000 M⁻¹ s⁻¹. Besides, in [7], the Q1 quadrant figure came out at 85. Besides, the binding result (in the assay with Q(261)H mutation; in assay [8]; in the assay with Kringle (Kg); in assay [2]) was “no binding” throughout.
